T1: hSA2 (human (endogenous in HeLa), UniProt Q8N3U4 1-1231)
T1 sequence: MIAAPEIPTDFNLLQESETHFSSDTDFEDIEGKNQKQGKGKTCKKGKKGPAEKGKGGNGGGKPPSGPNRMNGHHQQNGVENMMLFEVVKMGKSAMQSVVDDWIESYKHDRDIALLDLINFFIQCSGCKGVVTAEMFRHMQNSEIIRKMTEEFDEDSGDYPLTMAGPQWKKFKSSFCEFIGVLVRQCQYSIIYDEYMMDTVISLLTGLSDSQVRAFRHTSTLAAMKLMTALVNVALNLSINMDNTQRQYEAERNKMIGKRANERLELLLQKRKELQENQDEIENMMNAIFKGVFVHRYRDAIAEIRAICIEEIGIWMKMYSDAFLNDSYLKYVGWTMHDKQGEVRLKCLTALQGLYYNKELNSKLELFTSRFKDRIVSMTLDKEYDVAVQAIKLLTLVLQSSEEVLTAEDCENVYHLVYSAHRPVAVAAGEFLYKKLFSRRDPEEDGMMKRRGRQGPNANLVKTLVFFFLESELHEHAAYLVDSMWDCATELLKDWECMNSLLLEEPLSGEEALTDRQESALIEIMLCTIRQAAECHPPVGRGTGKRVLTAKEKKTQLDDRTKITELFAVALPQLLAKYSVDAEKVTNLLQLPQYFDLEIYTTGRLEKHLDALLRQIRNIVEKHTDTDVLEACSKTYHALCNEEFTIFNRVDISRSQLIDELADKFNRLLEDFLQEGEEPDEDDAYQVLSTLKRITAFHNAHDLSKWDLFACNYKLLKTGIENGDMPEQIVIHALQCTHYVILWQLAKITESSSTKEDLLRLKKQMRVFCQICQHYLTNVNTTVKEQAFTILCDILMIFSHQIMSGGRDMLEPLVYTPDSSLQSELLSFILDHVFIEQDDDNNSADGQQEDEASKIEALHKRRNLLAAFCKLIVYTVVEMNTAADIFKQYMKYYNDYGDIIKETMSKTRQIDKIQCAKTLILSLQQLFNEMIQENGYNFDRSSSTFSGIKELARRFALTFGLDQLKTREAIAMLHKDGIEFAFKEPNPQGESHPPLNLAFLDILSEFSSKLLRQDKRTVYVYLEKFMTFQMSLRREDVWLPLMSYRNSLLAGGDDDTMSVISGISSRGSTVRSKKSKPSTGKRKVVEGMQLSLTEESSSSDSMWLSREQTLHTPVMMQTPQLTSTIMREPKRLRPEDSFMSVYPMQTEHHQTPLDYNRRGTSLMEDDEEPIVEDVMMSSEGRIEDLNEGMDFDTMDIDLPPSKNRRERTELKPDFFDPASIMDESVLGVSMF

T2: hSA1 (human (endogenous in HeLa), UniProt Q8WVM7 1-1258)
T2 sequence: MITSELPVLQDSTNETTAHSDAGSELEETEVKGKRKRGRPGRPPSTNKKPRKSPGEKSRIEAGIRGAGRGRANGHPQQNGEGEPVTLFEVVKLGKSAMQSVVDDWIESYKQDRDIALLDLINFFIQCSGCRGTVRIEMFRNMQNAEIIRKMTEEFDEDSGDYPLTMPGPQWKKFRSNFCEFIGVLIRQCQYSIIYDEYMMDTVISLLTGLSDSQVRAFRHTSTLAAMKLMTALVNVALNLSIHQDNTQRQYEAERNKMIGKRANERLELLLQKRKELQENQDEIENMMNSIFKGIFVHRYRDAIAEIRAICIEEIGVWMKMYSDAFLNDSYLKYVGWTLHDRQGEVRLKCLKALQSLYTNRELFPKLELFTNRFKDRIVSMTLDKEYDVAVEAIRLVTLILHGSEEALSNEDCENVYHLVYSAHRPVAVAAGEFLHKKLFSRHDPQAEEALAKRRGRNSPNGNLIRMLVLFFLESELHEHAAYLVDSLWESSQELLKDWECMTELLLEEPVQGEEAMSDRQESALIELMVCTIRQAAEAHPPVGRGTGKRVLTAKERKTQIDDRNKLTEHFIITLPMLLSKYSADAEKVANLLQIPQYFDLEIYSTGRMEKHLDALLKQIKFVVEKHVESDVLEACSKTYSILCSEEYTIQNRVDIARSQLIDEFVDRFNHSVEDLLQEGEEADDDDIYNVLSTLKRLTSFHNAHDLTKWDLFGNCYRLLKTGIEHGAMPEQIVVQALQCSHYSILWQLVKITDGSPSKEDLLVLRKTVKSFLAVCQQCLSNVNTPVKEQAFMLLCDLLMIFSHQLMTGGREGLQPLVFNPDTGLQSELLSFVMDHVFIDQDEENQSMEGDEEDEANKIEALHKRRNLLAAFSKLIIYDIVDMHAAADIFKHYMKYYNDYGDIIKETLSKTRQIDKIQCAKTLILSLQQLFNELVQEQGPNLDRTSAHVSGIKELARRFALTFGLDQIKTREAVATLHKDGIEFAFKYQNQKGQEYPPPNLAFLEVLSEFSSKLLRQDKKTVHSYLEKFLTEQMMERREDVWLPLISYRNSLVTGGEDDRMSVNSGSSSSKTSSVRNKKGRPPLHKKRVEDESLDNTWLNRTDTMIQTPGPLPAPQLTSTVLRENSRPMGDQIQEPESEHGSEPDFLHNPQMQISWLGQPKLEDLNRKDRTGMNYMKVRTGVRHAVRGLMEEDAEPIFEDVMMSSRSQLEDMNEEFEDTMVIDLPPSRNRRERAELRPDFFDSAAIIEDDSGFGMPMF


Legend:
hSA2 = target: T1, hSA2; test: co-IP
hSA1 = target: T2, hSA1; test: co-IP

Row | percent removed from the extract by anti-XSA2 (hSA2) [%] | percent removed from the extract by anti-XSA1 (hSA1) [%] | Binder
1 | ~75 | ~25 | hRAD21 (natural protein) MFYAHFVLSKRGPLAKIWLAAHWDKKLTKAHVFECNLESSVESIISPKVKMALRTSGHLLLGVVRIYHRKAKYLLADCNEAFIKIKMAFRPGVVDLPEENREAAYNAITLPEEFHDFDQPLPDLDDIDVAQQFSLNQSRVEEITMREEVGNISILQENDFGDFGMDDREIMREGSAFEDDDMLVSTTTSNLLLESEQSTSNLNEKINHLEYEDQYKDDNFGEGNDGGILDDKLISNNDGGIFDDPPALSEAGVMLPEQPAHDDMDEDDNVSMGGPDSPDSVDPVEPMPTMTDQTTLVPNEEEAFALEPIDITVKETKAKRKRKLIVDSVKELDSKTIRAQLSDYSDIVTTLDLAPPTKKLMMWKETGGVEKLFSLPAQPLWNNRLLKLFTRCLTPLVPEDLRKRRKGGEADNLDEFLKEFENPEVPREDQQQQHQQRDVIDEPIIEEPSRLQESVMEASRTNIDESAMPPPPPQGVKRKAGQIDPEPVMPPQQVEQMEIPPVELPPEEPPNICQLIPELELLPEKEKEKEKEKEDDEEEEDEDASGGDQDQEERRWNKRTQQMLHGLQRALAKTGAESISLLELCRNTNRKQAAAKFYSFLVLKKQQAIELTQEEPYSDIIATPGPRFHII
2 | ~75 | ~25 | hSMC3 (natural protein) MYIKQVIIQGFRSYRDQTIVDPFSSKHNVIVGRNGSGKSNFFYAIQFVLSDEFSHLRPEQRLALLHEGTGPRVISAFVEIIFDNSDNRLPIDKEEVSLRRVIGAKKDQYFLDKKMVTKNDVMNLLESAGFSRSNPYYIVKQGKINQMATAPDSQRLKLLREVAGTRVYDERKEESISLMKETEGKREKINELLKYIEERLHTLEEEKEELAQYQKWDKMRRALEYTIYNQELNETRAKLDELSAKRETSGEKSRQLRDAQQDARDKMEDIERQVRELKTKISAMKEEKEQLSAERQEQIKQRTKLELKAKDLQDELAGNSEQRKRLLKERQKLLEKIEEKQKELAETEPKFNSVKEKEERGIARLAQATQERTDLYAKQGRGSQFTSKEERDKWIKKELKSLDQAINDKKRQIAAIHKDLEDTEANKEKNLEQYNKLDQDLNEVKARVEELDRKYYEVKNKKDELQSERNYLWREENAEQQALAAKREDLEKKQQLLRAATGKAILNGIDSINKVLDHFRRKGINQHVQNGYHGIVMNNFECEPAFYTCVEVTAGNRLFYHIVDSDEVSTKILMEFNKMNLPGEVTFLPLNKLDVRDTAYPETNDAIPMISKLRYNPRFDKAFKHVFGKTLICRSMEVSTQLARAFTMDCITLEGDQVSHRGALTGGYYDTRKSRLELQKDVRKAEEELGELEAKLNENLRRNIERINNEIDQLMNQMQQIETQQRKFKASRDSILSEMKMLKEKRQQSEKTFMPKQRSLQSLEASLHAMESTRESLKAELGTDLLSQLSLEDQKRVDALNDEIRQLQQENRQLLNERIKLEGIITRVETYLNENLRKRLDQVEQELNELRETEGGTVLTATTSELEAINKRVKDTMARSEDLDNSIDKTEAGIKELQKSMERWKNMEKEHMDAINHDTKELEKMTNRQGMLLKKKEECMKKIRELGSLPQEAFEKYQTLSLKQLFRKLEQCNTELKKYSHVNKKALDQFVNFSEQKEKLIKRQEELDRGYKSIMELMNVLELRKYEAIQLTFKQVSKNFSEVFQKLVPGGKATLVMKKGDVEGSQSQDEGEGSGESERGSGSQSSVPSVDQFTGVGIRVSFTGKQGEMREMQQLSGGQKSLVALALIFAIQKCDPAPFYLFDEIDQALDAQHRKAVSDMIMELAVHAQFITTTFRPELLESADKFYGVKFRNKVSHIDVITAEMAKDFVEDDTTHG
3 | ~75 | ~25 | hSMC1 (natural protein) MGFLKLIEIENFKSYKGRQIIGPFQRFTAIIGPNGSGKSNLMDAISFVLGEKTSNLRVKTLRDLIHGAPVGKPAANRAFVSMVYSEEGAEDRTFARVIVGGSSEYKINNKVVQLHEYSEELEKLGILIKARNFLVFQGAVESIAMKNPKERTALFEEISRSGELAQEYDKRKKEMVKAEEDTQFNYHRKKNIAAERKEAKQEKEEADRYQRLKDEVVRAQVQLQLFKLYHNEVEIEKLNKELASKNKEIEKDKKRMDKVEDELKEKKKELGKMMREQQQIEKEIKEKDSELNQKRPQYIKAKENTSHKIKKLEAAKKSLQNAQKHYKKRKGDMDELEKEMLSVEKARQEFEERMEEESQSQGRDLTLEENQVKKYHRLKEEASKRAATLAQELEKFNRDQKADQDRLDLEERKKVETEAKIKQKLREIEENQKRIEKLEEYITTSKQSLEEQKKLEGELTEEVEMAKRRIDEINKELNQVMEQLGDARIDRQESSRQQRKAEIMESIKRLYPGSVYGRLIDLCQPTQKKYQIAVTKVLGKNMDAIIVDSEKTGRDCIQYIKEQRGEPETFLPLDYLEVKPTDEKLRELKGAKLVIDVIRYEPPHIKKALQYACGNALVCDNVEDARRIAFGGHQRHKTVALDGTLFQKSGVISGGASDLKAKARRWDEKAVDKLKEKKERLTEELKEQMKAKRKEAELRQVQSQAHGLQMRLKYSQSDLEQTKTRHLALNLQEKSKLESELANFGPRINDIKRIIQSREREMKDLKEKMNQVEDEVFEEFCREIGVRNIREFEEEKVKRQNEIAKKRLEFENQKTRLGIQLDFEKNQLKEDQDKVHMWEQTVKKDENEIEKLKKEEQRHMKIIDETMAQLQDLKNQHLAKKSEVNDKNHEMEEIRKKLGGANKEMTHLQKEVTAIETKLEQKRSDRHNLLQACKMQDIKLPLSKGTMDDISQEEGSSQGEDSVSGSQRISSIYAREALIEIDYGDLCEDLKDAQAEEEIKQEMNTLQQKLNEQQSVLQRIAAPNMKAMEKLESVRDKFQETSDEFEAARKRAKKAKQAFEQIKKERFDRFNACFESVATNIDEIYKALSRNSSAQAFLGPENPEEPYLDGINYNCVAPGKRFRPMDNLSGGEKTVAALALLFAIHSYKPAPFFVLDEIDAALDNTNIGKVANYIKEQSTCNFQAIVISLKEEFYTKAESLIGVYPEQGDCVISKVLTFDLTKYPDANPNPNEQ

— paper PMC2175199 (The Journal of Cell Biology, 2000)
